Experimental data reported in patent publication US20040157327A1.

Target: Pablo, full length (pro-apoptotic Bcl-xL binding protein) (human) (UniProt Q92558)
Assay: cell-based or functional assay

Chain of UniProt Q92558 (Q92558 whole entry): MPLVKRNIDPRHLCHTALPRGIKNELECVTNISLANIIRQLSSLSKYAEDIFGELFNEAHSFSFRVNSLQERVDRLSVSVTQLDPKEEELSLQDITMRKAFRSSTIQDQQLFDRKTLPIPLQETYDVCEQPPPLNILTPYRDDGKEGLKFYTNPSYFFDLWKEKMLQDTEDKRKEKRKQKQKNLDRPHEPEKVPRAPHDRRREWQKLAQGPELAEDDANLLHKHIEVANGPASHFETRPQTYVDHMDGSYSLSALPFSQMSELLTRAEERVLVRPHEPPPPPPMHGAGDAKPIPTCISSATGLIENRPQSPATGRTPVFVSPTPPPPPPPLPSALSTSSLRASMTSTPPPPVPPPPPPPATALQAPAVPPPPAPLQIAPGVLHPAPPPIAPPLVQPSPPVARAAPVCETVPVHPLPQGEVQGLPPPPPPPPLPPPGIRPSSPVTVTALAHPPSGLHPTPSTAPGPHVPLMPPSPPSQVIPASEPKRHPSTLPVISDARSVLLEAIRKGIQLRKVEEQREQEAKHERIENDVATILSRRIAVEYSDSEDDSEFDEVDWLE

- apoptotic nuclei at 48 hours post-transfection/induction (PC12-Pablo cells, Hoechst stain): 3.5%
- percentage of PC12 cells that were eGFP+, 48 hours post-transfection/induction: 14%
Substance: Bcl-xL-eGFP (from UniProt Q07817 1-233)
